Measurements: patent publication US20030108935, “Probing binding interactions between molecules and nucleic acids by unzipping a nucleic acid molecule double helix” (published 2003)

Key:
[1] = system: EcoRI restriction endonuclease; settings: highest Ka measured in this report; optical-trap unzipping (UFAPA); 10 mM HEPES pH 7.6, 1 mM EDTA, no Mg2+, 106-262 mM Na+, 23 C; Ka decreases with Na+ …
[2] = molecular target: T1, BsoBI restriction endonuclease (UniProt P70985 P70985:2-323); experiment: optical-trap unzipping, dynamic force spectroscopy: f_beta 4.36 +/- 0.53 pN, ln(toff in s) 7.6 +/- 1.1, N=51; BsoBI 0.7 nM, 50 mM Na phosphate pH 7.0, 50 mM NaCl, 10 mM EDTA, no Mg2+, 23 C; settings: tags: New England BioLabs, commercial grade, used without further purification; chain copies: 2 (stated, 72 kD dimer); label: digoxigenin and biotin (via anchoring segment and insert duplex)
T1 sequence: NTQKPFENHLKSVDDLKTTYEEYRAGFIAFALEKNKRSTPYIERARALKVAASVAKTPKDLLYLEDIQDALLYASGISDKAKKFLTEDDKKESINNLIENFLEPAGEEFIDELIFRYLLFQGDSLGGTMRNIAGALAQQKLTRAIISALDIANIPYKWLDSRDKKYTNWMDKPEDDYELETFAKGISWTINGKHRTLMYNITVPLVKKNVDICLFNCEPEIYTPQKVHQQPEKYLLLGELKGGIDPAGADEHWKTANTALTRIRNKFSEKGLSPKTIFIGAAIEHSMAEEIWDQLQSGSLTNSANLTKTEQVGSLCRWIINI
Experimental: (§1) Unzipping Buffer Conditions. Experiments with BsoBI and XhoI were performed at room temperature (23° C.) in a buffer containing 50 mM sodium phosphate buffer pH 7.0, 50 mM NaCl, 0.02% Tween-20, 10 mM EDTA. To facilitate better comparisons of future EcoRI results with previously reported results, mapping and equilibrium constants studies of EcoRI were performed at room temperature (23° C.) in a buffer containing 10 mM HEPES, pH 7.6, 1 mM EDTA, 50 μM DTT, 100 μg/ml BSA, 500 μg/ml Blotting Grade Blocker (Bio-Rad) and NaCl added to produce total Na+concentrations of 106 to 262 mM. […] The Hepes buffer is similar to the buffer used by Ha et al., “Role of the Hydrophobic Effect in Stability of Site-Specific Protein-DNA Complexes,” J. Mol. Biol. 209:801-816 (1989), the entire disclosure of which is hereby incorporated by reference in its entirety, for temperature dependence studies of EcoRI binding to its site on pBR322. Because of the tendency for EcoRI to aggregate at lower ionic strengths (Jen-Jacobson et al., “Coordinate Ion Pair Formation Between EcoRI Endonuclease and DNA,” J. Biol. Chem. 258:14638-14646 (1983), the entire disclosure of which is hereby incorporated by reference in its entirety), the EcoRI mapping data were taken at 131 mM total Na+ concentration. […]

[3] = molecular target: T1, BsoBI restriction endonuclease; experiment: optical-trap unzipping, dynamic force spectroscopy: f_beta 4.04 +/- 0.14 pN, ln(toff in s) 4.98 +/- 0.27, N=243; BsoBI 0.7 nM, 50 mM Na phosphate pH 7.0, 50 mM; settings: tags: New England BioLabs, commercial grade, used without further purification; chain copies: 2 (stated, 72 kD dimer); label: digoxigenin and biotin (via anchoring segment and insert duplex)
Experimental: as §1

In the case of “pBR322 EarI large fragment unzipping segment with single EcoRI site”, the Ka [1] is reported as 1e+11 M⁻¹.

B1: beta site (BsoBI/XhoI) (dsDNA)
DNA 1: AAACTCGAGAGA
DNA 2: TCTCTCGAGTTT
B1: binds [2].

B2: BsoBI alpha site (dsDNA)
DNA 1: TTCCTCGGGAAT
DNA 2: ATTCCCGAGGAA
B2: binds [3].
